Data published in patent US7807387B2, “Biological agent that causes IL-6 receptor release” (Meyer Pharmaceuticals LLC, priority 2003, dated 2010).

What was measured:
[1] = target: T1, p55 TNF Receptor (Homo sapiens, UniProt P19438); experiment: Cleavage of cell surface p55 TNF receptor on THP-1 cells; type: cell-based; conditions: 45 minutes at 37° C.
T1 construct: endogenous in cells; host or cells: THP-1
T1 sequence (P19438 30-455): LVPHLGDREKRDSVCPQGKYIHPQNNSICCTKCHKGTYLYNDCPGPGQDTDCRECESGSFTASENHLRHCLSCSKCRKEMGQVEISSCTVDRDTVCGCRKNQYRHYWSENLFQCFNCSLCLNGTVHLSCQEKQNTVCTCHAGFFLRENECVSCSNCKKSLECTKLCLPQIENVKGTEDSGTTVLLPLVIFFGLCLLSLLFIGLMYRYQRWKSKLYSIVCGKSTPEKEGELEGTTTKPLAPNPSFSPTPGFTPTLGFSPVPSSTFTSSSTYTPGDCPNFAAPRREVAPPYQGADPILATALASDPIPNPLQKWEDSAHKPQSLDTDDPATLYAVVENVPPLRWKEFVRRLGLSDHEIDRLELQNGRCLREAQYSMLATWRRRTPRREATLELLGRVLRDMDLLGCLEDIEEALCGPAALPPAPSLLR
Description: (§1) This cell line expresses both the p55 TNF receptor and the p75 TNF receptor. After incubating for 45 minutes at 37° C., the cells were washed, immunostained for cell surface receptor, and counted by flow cytometry.

[2] = Clearance of MP8 protein from the circulation by dot-blot analysis; type: in vivo; conditions: mice
[3] = test system: human IL-1 type 1 and type 2 receptors; experiment: FRET peptide cleavage assay, IL-1 receptor peptides; type: biochemical
Description: (§2) Cytokine-specific proteolytic activity can rapidly be quantified by Fluorescence Resonance Energy Transfer (FRET). Peptides having the amino acid sequence of the TNF Receptor or other protein substrates are labeled at opposite ends with a fluorescence emitter and a fluorescence quencher. The peptide is then incubated with a source of receptor cleaving enzyme, and fluorescence is measured. The quenching group normally absorbs fluorescence from the emitter. But enzymatic cleavage of the peptide decouples the quenching group, and fluorescence emission increases proportionally.
(§3) The peptides used as substrates in the cleavage assay were taken from the known sites of proteolytic cleavage of the whole protein. The peptides were labeled with the fluorescence emitter (Edans-●) at the C-terminal, and the quenching hapten (Dabcyl-▴) at the N-terminal.
(§4) The assay is conducted in the presence of the metal cations Zn^++ (0.1 mM) and Ca^++ (2 mM), and corrected for cleavage in the presence of EDTA (20 mM). Dependence on divalent cations confirms that the enzyme activity measured in this assay is a metalloprotease. The assay mixture also contains a cocktail of protease inhibitors and bovine albumin. Cleavage is measured as the net change in fluorescence emission after incubating the enzyme with the peptide at 37° C. for 3 hours. […]

[4] = test system: carrageenan-induced paw edema; experiment: Carrageenan-induced paw edema; type: in vivo, Sprague Dawley rats; conditions: given one hour before carrageenan; paw volume three hours later; MP8 subcutaneously, indomethacin by mouth
Description: Based on the standard model (Winter et al., Proc Soc Exp Biol Med 111:544, 1962; Hansra et al., Inflammation 24:141, 2000), the experiment was performed as follows. Male Sprague Dawley rats were randomized by weight into three treatment groups. The animals were administered MP8 or control solution subcutaneously, or indomethacin by mouth. One hour later, they were injected in the left hind paw with a sterile solution of 1% carrageenan suspension in water, in order to induce swelling. Three hours later, the volume of the injected paw was measured by water displacement in a water plethysmograph (mean±SEM; 10 animals per group).
Male Sprague Dawley rats were administered with test protein or indomethacin (anti-inflammatory control), and then challenged in a hind footpad with carrageenan, as in Example 12.

[5] = target: T2, p75 TNF Receptor (Homo sapiens, UniProt P20333); experiment: Cleavage of cell surface p75 TNF receptor on THP-1 cells; type: cell-based; conditions: 45 minutes at 37° C.
T2 construct: endogenous in cells; host or cells: THP-1
T2 sequence (P20333 23-461): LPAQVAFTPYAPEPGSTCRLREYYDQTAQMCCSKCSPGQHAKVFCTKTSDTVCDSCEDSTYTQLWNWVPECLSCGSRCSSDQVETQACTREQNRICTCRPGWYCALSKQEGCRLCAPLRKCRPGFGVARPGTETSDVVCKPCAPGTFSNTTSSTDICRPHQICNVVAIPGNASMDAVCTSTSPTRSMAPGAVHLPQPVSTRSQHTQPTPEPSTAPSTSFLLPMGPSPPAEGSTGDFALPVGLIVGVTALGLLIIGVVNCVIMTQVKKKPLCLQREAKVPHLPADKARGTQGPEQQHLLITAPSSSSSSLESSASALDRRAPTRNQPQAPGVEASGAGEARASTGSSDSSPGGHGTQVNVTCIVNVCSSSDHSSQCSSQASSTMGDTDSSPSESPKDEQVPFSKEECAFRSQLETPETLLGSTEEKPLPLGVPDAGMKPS
Description: as §1

[6] = target: p55 TNF Receptor (Homo sapiens, UniProt P19438); experiment: FRET peptide cleavage assay, p55 TNF receptor peptide; type: biochemical; conditions: Zn++ 0.1 mM, Ca++ 2 mM, corrected for EDTA, 37° C. for 3 hours
Description: as §2, §3, §4

[7] = test system: TNF receptor; experiment: TNF receptor release in vivo after subcutaneous injection; design: species or system Balb/c mice
Description: To determine if the enzyme cleaves TNF receptors in vivo, 100,000 FU of purified MP8 was injected subcutaneously as a 500 μL bolus into female Balb/c mice. Control mice were injected with saline. Serum was sampled periodically, and tested for cytokine levels using ELISA kits from R&D System.

[8] = test system: collagen-induced arthritis; experiment: Collagen-induced arthritis, treatment from 3 days before collagen; type: in vivo, DBA/1 LacJ mice
Description: Collagen-induced arthritis is a standard model for evaluating potential therapeutic agents for rheumatoid arthritis (Courtenay et al., Nature 283:666, 1980; Williams et al., Proc Natl Acad Sci USA 89:9784, 1992; Gerlag et al., J Immunol 165:1652, 2000). Arthritis was induced in 7-9 week old female DBA/1 LacJ mice by immunization with collagen. On day 0, the mice were injected at the base of the tail with 100 μg bovine type II collagen in complete Freund's adjuvant. On day 7, mice were boosted with an intraperitoneal injection of 100 μg collagen. To enhance and synchronize synovitis, the mice were injected subcutaneously on day 14 with 100 μg of lipopolysaccharide (LPS). Joint swelling was monitored in a blinded fashion by measuring the diameter in all 4 paws and both ankles using a constant pressure gauge. Arthritis Index was also determined on the following scale, and summed for all extremities. 0≡normal; 1≡one digit swollen; 2≡more than one digit swollen; 3≡joint distortion; 4≡ankylosis. The arthritis experiments were conducted under contract by Calvert Preclinical Services, Inc., Olyphant Pa.
As is typical in this model, not all animals respond to the collagen challenge.

B1: MP8: polypeptide having the sequence of SEQ. ID NO:41 (usually with a HIS tag); cytokine receptor releasing protein expressed in E. coli (protein, listed as Homo sapiens)
chain: WIQRIRHEGNSTVYEWRTGTEPSVVERPHLEELPEQVAEDAIDWGDFGVEAVSEGTDSGISAEAAGIDWGIFPESDSKDPGGDGIDWGDDAVALQITVLEAGTQAPEGVARGPDALTLLEYTETRNQFLDELMELEIFLAQRAVELSEEADVLSVSQFQLAPAILQGQTKEKMVTMVSVLEDLIGKLTSLQLQHLFMILASPRYVDRVTEFLQQKLKQSQLLALKKELMVQKQQEALEEQAALEPKLDLLLEKTKELQKLIEADISKRYSGRPVNLMGTSL
modifications: HIS tag
notes: ID NO:41 (usually with a HIS tag); cytokine receptor releasing protein expressed in E. coli
[1]
  cleavage of p55 TNF receptor on the surface of cells: cleaves
[2]
  first clearance half-time from the circulation: ~39 h
[3]
  cleavage of IL-1 receptor: cleaves
[4]
  inhibition of edema formation: 62%
[5]
  cleavage of p75 TNF receptor on the surface of cells: cleaves
[6]
  cleavage of p55 TNF receptor (R1) peptide: cleaves
[7]; 100,000 FU subcutaneously
  persistence of the effect after administration: 48 h
[7]; other experiments
  persistence of released receptors in the circulation: at least 6 days
[8]; 300,000 FU daily
  effectiveness compared with Enbrel: at least as effective as a scaled dose of Enbrel®
[8]; 300,000 FU daily starting 3 days before first collagen injection, 8 out of 9 controls affected
  animals affected by arthritis: none of the animals treated with MP8 were affected
[8]; 300,000 FU daily, prophylactic
  joint swelling and arthritis index: prevented the animals from showing any measurable signs of the disease
